Experiments:
Assay in all cases: pull-down; 4 μg GST protein with 2 μg HIS-S5a in 800μL 2% Chaps buffer (20mM Tris pH 8.0, 150mM NaCl, 2mM MgCl2, 10% glycerol, 2.0% Chaps), glutathione agarose beads, 2 hrs at room temperature; washes with PBS, 2% Tween-20, 200 mM KCl; blot for S5a
Conditions in all cases: both partners purified
GST-ubiquilin-2 P506T = target: T1, GST-ubiquilin-2 P506T (human, UniProt Q9UHD9 1-624, P506T)
T1 construct: ubiquilin-2, human, full-length cDNA, 624 aa, ALS-linked mutation P506T; pGST/His T1 vector; also called P506T mutation; source: E. coli BL21(DE3), purified (glutathione-agarose); not shown: GST, N-terminal, kept
T1 sequence (Q9UHD9 whole entry P506T): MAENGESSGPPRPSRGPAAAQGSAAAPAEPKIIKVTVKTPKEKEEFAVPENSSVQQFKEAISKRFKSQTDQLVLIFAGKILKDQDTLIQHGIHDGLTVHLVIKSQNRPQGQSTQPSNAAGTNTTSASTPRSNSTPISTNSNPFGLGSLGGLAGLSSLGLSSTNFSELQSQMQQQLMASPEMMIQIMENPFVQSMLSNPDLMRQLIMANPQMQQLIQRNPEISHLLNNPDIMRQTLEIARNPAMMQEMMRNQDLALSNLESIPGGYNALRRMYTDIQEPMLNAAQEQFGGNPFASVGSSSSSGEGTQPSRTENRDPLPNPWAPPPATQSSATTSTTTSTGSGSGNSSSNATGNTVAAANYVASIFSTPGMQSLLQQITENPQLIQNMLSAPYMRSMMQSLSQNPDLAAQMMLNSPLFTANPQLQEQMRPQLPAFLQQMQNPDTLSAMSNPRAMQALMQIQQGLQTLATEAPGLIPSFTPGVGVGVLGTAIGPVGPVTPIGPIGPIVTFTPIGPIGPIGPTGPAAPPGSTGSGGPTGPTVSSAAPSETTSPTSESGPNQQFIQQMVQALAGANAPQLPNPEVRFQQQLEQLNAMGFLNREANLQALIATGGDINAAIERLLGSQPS

GST-ubiquilin-2 P509S = target: T2, GST-ubiquilin-2 P509S (human, UniProt Q9UHD9 1-624, P509S)
T2 construct: ubiquilin-2, human, full-length cDNA, 624 aa, ALS-linked mutation P509S; pGST/His T1 vector; also called P509S mutation; source: E. coli BL21(DE3), purified (glutathione-agarose); not shown: GST, N-terminal, kept
T2 sequence (Q9UHD9 whole entry P509S): as the sequence (Q9UHD9 whole entry P506T) above, with T506P, P509S counted along it

GST-ubiquilin-2 P525S = target: T3, GST-ubiquilin-2 P525S (human, UniProt Q9UHD9 1-624, P525S)
T3 construct: ubiquilin-2, human, full-length cDNA, 624 aa, ALS-linked mutation P525S; pGST/His T1 vector; also called P525S mutation; source: E. coli BL21(DE3), purified (glutathione-agarose); not shown: GST, N-terminal, kept
T3 sequence (Q9UHD9 whole entry P525S): as the sequence (Q9UHD9 whole entry P506T) above, with T506P, P525S counted along it

[1] = target: T4, GST-ubiquilin-2 wild type (human, UniProt Q9UHD9 1-624)
T4 construct: ubiquilin-2, human, full-length cDNA, 624 aa; cloned downstream of GST in the pGST/His T1 vector; also called GST-fusion protein encoding WT ubiquilin-2; source: E. coli BL21(DE3), purified (glutathione-agarose); not shown: GST, N-terminal, kept
T4 sequence (Q9UHD9 whole entry, the tested form may be a part): as the sequence (Q9UHD9 whole entry P506T) above, with T506P counted along it

GST-ubiquilin-2 P497H = target: T5, GST-ubiquilin-2 P497H (human, UniProt Q9UHD9 1-624, P497H)
T5 construct: ubiquilin-2, human, full-length cDNA, 624 aa, ALS-linked mutation P497H; pGST/His T1 vector; also called P497H mutation; source: E. coli BL21(DE3), purified (glutathione-agarose); not shown: GST, N-terminal, kept
T5 sequence (Q9UHD9 whole entry P497H): as the sequence (Q9UHD9 whole entry P506T) above, with P497H, T506P counted along it

GST-ubiquilin-2 P497S = target: T6, GST-ubiquilin-2 P497S (human, UniProt Q9UHD9 1-624, P497S)
T6 construct: ubiquilin-2, human, full-length cDNA, 624 aa, ALS-linked mutation P497S; pGST/His T1 vector; also called P497S mutation; source: E. coli BL21(DE3), purified (glutathione-agarose); not shown: GST, N-terminal, kept
T6 sequence (Q9UHD9 whole entry P497S): as the sequence (Q9UHD9 whole entry P506T) above, with P497S, T506P counted along it

binding result (GST-ubiquilin-2 P506T): binds
binding result (GST-ubiquilin-2 P509S): binds
binding result (GST-ubiquilin-2 P525S): binds
binding result [1]: binds
binding result (GST-ubiquilin-2 P497H): binds
binding result (GST-ubiquilin-2 P497S): binds
B1: HIS-tagged human S5a protein (natural protein, UniProt P55036 1-377, looked up)
chain: MVLESTMVCVDNSEYMRNGDFLPTRLQAQQDAVNIVCHSKTRSNPENNVGLITLANDCEVLTTLTPDTGRILSKLHTVQPKGKITFCTGIRVAHLALKHRQGKNHKMRIIAFVGSPVEDNEKDLVKLAKRLKKEKVNVDIINFGEEEVNTEKLTAFVNTLNGKDGTGSHLVTVPPGPSLADALISSPILAGEGGAMLGLGASDFEFGVDPSADPELALALRVSMEEQRQRQEEEARRAAAASAAEAGIATTGTEDSDDALLKMTISQQEFGRTGLPDLSSMTEEEQIAYAMQMSLQGAEFGQAESADIDASSAMDTSEPAKEEDDYDVMQDPEFLQSVLENLPGVDPNNEAIRNAMGSLASQATKDGKKDKKEEDKK
notes: S5a subunit of the 19S cap of the proteasome, human, entire open reading frame (377 aa); cloned in pET-21a; also called His-S5a; HIS-S5a; source: E. coli BL21(DE3), purified (Ni-NTA agarose)
